This data set concerns Escherichia coli TOP10. Description: shrunken log2 fold change of peptide-encoding DNA abundance (4.5 h post-induction vs induction); higher = less antimicrobial activity (less host growth inhibition). Conditions: time post-induction: 4.5 h; library: site-saturation at positions 5, 18, 19, 20.
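Further: peptides expressed intracellularly from a pBAD plasmid library in pooled LB shake-flask culture, induced with 0.3% L-arabinose, DNA abundance read by NGS, three biological replicates, DESeq2 with apeglm shrinkage.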

As for RRIRARPPRLPRPRPRPYNPPRP, the “shrunken log2 fold change” value was -0.388.
Turning to RRIRRRPPRLPRPRPRPVPKPRP, the “shrunken log2 fold change” value was 0.234.
Consider RRIRYRPPRLPRPRPRPSQWPRP, for which the “shrunken log2 fold change” value was -0.162.
In the case of RRIRYRPPRLPRPRPRPSLYPRP, the “shrunken log2 fold change” value was -1.
On to RRIRLRPPRLPRPRPRPHTHPRP, for which the “shrunken log2 fold change” value is -0.441.
Turning to RRIRDRPPRLPRPRPRPGMCPRP, the “shrunken log2 fold change” value stood at 0.432.
Regarding RRIRDRPPRLPRPRPRPWWMPRP, the “shrunken log2 fold change” value turned out to be 0.0169.
For RRIRERPPRLPRPRPRPNSEPRP the value was -0.391; for RRIRCRPPRLPRPRPRPPAHPRP, 2.07.
In the case of RRIRQRPPRLPRPRPRPSGQPRP, the “shrunken log2 fold change” value is -0.0485.
Take RRIRKRPPRLPRPRPRPFSNPRP: the “shrunken log2 fold change” value was -0.411.
Consider RRIRMRPPRLPRPRPRPMVKPRP, for which the “shrunken log2 fold change” value worked out at 0.0401.
For RRIRARPPRLPRPRPRPFMIPRP, the “shrunken log2 fold change” value is -0.1.
As to RRIRLRPPRLPRPRPRPIQSPRP, the “shrunken log2 fold change” value is -0.0832.
Turning to RRIRIRPPRLPRPRPRPHMPPRP, the “shrunken log2 fold change” value is -1.11.
With RRIRMRPPRLPRPRPRPLGFPRP, the “shrunken log2 fold change” value turned out to be 0.772.
Consider RRIRQRPPRLPRPRPRPWINPRP, for which the “shrunken log2 fold change” value was -0.408.
For RRIRKRPPRLPRPRPRPIVFPRP, the “shrunken log2 fold change” value was -0.0542.
Turning to RRIRRRPPRLPRPRPRPIFKPRP, the “shrunken log2 fold change” value worked out at 0.196.
As for RRIRRRPPRLPRPRPRPTRIPRP, the “shrunken log2 fold change” value stood at 0.71.
Under RRIRRRPPRLPRPRPRPYHEPRP stands 0.016.
For RRIRQRPPRLPRPRPRPGYCPRP the value was -0.0255.
Consider RRIRNRPPRLPRPRPRPVNPPRP, for which the “shrunken log2 fold change” value was -0.216.
Under RRIRWRPPRLPRPRPRPTTCPRP stands -0.00726; under RRIRYRPPRLPRPRPRPMCLPRP, -0.0113; under RRIRFRPPRLPRPRPRPDIQPRP, -0.628.
Regarding RRIRARPPRLPRPRPRPYMMPRP, the “shrunken log2 fold change” value is -1.22.
For the sequence RRIRKRPPRLPRPRPRPHPMPRP, the “shrunken log2 fold change” value was found to be 0.224.
On to RRIRTRPPRLPRPRPRPNFPPRP, for which the “shrunken log2 fold change” value was -0.00778.
RRIRERPPRLPRPRPRPPEDPRP: the “shrunken log2 fold change” value was determined as 2.12.
On to RRIRPRPPRLPRPRPRPHYTPRP, for which the “shrunken log2 fold change” value is -0.516.
For RRIRYRPPRLPRPRPRPLVYPRP the value was -1.16.
As for RRIRDRPPRLPRPRPRPMHEPRP, the “shrunken log2 fold change” value turned out to be 0.0698.
Turning to RRIRRRPPRLPRPRPRPCPVPRP, the “shrunken log2 fold change” value is -0.256.
Under RRIRSRPPRLPRPRPRPDSKPRP stands 1.02; under RRIRPRPPRLPRPRPRPKNCPRP, -0.238.
As to RRIRMRPPRLPRPRPRPETNPRP, the “shrunken log2 fold change” value came out at 2.42.
As to RRIRYRPPRLPRPRPRPHLQPRP, the “shrunken log2 fold change” value is -0.388.
As for RRIRARPPRLPRPRPRPEIRPRP, the “shrunken log2 fold change” value turned out to be 0.132.
For RRIRWRPPRLPRPRPRPCVCPRP the value was 0.222.
Turning to RRIRIRPPRLPRPRPRPWPSPRP, the “shrunken log2 fold change” value was determined as 0.193.
For RRIRPRPPRLPRPRPRPMADPRP, the “shrunken log2 fold change” value was 0.131.
On to RRIRLRPPRLPRPRPRPSECPRP, for which the “shrunken log2 fold change” value is 0.215.
For RRIRKRPPRLPRPRPRPYTPPRP the value was -0.344.
As for RRIRRRPPRLPRPRPRPNYYPRP, the “shrunken log2 fold change” value was -0.333.
Turning to RRIRMRPPRLPRPRPRPTVWPRP, the “shrunken log2 fold change” value turned out to be 0.736.
For the sequence RRIRKRPPRLPRPRPRPCFFPRP, the “shrunken log2 fold change” value was 0.113.
For RRIRYRPPRLPRPRPRPTWAPRP, the “shrunken log2 fold change” value is -0.0132.
Consider RRIRERPPRLPRPRPRPNLHPRP, for which the “shrunken log2 fold change” value was found to be 0.504.
For RRIRARPPRLPRPRPRPYECPRP the value was -0.327; for RRIRTRPPRLPRPRPRPPNSPRP, 0.0134; for RRIRARPPRLPRPRPRPFWIPRP, -0.0619.
Under RRIRGRPPRLPRPRPRPDESPRP stands 0.0316.
Take RRIRDRPPRLPRPRPRPLAHPRP: the “shrunken log2 fold change” value came out at 0.151.
For RRIRQRPPRLPRPRPRPCFMPRP, the “shrunken log2 fold change” value turned out to be 0.628.
Take RRIRPRPPRLPRPRPRPMIQPRP: the “shrunken log2 fold change” value stood at 0.0205.
Regarding RRIRHRPPRLPRPRPRPHHRPRP, the “shrunken log2 fold change” value was -0.257.
For RRIRRRPPRLPRPRPRPVMPPRP, the “shrunken log2 fold change” value was 0.338.
For the sequence RRIRNRPPRLPRPRPRPEPFPRP, the “shrunken log2 fold change” value is -0.0904.
Regarding RRIRNRPPRLPRPRPRPVQMPRP, the “shrunken log2 fold change” value came out at 0.0259.
Under RRIRQRPPRLPRPRPRPHYGPRP stands 0.0133; under RRIRDRPPRLPRPRPRPYAHPRP, -0.31; under RRIRGRPPRLPRPRPRPRREPRP, 0.381.
Under RRIRVRPPRLPRPRPRPTHCPRP stands 0.233; under RRIRERPPRLPRPRPRPQEIPRP, 0.0133.
With RRIRSRPPRLPRPRPRPCQPPRP, the “shrunken log2 fold change” value amounted to 0.0956.
For RRIRMRPPRLPRPRPRPTGCPRP the value was 0.588; for RRIRNRPPRLPRPRPRPYKQPRP, -0.0495.
In the case of RRIRWRPPRLPRPRPRPSLAPRP, the “shrunken log2 fold change” value turned out to be 0.428.
Regarding RRIRFRPPRLPRPRPRPDWHPRP, the “shrunken log2 fold change” value is -0.152.
As to RRIRYRPPRLPRPRPRPGCVPRP, the “shrunken log2 fold change” value is -0.202.
As for RRIRNRPPRLPRPRPRPDSHPRP, the “shrunken log2 fold change” value is -0.0854.
With RRIRPRPPRLPRPRPRPGGMPRP, the “shrunken log2 fold change” value worked out at 0.189.
For RRIRIRPPRLPRPRPRPCQTPRP the value was -0.02; for RRIRWRPPRLPRPRPRPGRNPRP, -0.000528.
Under RRIRIRPPRLPRPRPRPEHAPRP stands 0.00666; under RRIRNRPPRLPRPRPRPPDPPRP, 0.497.
Regarding RRIRFRPPRLPRPRPRPMTAPRP, the “shrunken log2 fold change” value was -0.00148.
As to RRIRSRPPRLPRPRPRPPGRPRP, the “shrunken log2 fold change” value turned out to be 0.482.
On to RRIRKRPPRLPRPRPRPGTIPRP, for which the “shrunken log2 fold change” value is -0.0588.
With RRIRNRPPRLPRPRPRPLTFPRP, the “shrunken log2 fold change” value was -0.0233.
For RRIRIRPPRLPRPRPRPHNQPRP, the “shrunken log2 fold change” value was -0.528.
Turning to RRIRTRPPRLPRPRPRPVTTPRP, the “shrunken log2 fold change” value is -0.116.
RRIRTRPPRLPRPRPRPKDGPRP: the “shrunken log2 fold change” value is -0.0362.
For RRIRGRPPRLPRPRPRPPEAPRP the value was 1.33; for RRIRDRPPRLPRPRPRPQYPPRP, -0.219.
For RRIRSRPPRLPRPRPRPRLSPRP, the “shrunken log2 fold change” value was determined as 0.00425.
On to RRIRWRPPRLPRPRPRPPQLPRP, for which the “shrunken log2 fold change” value was 0.462.
As for RRIRLRPPRLPRPRPRPIFNPRP, the “shrunken log2 fold change” value was -0.221.
In the case of RRIRSRPPRLPRPRPRPCERPRP, the “shrunken log2 fold change” value is -0.0685.
Consider RRIRFRPPRLPRPRPRPHGTPRP, for which the “shrunken log2 fold change” value is -0.134.
Under RRIRDRPPRLPRPRPRPIIGPRP stands -0.193; under RRIRCRPPRLPRPRPRPSCTPRP, -0.287; under RRIRNRPPRLPRPRPRPIDHPRP, -0.169.
RRIRRRPPRLPRPRPRPCWLPRP: the “shrunken log2 fold change” value was found to be 0.202.
For the sequence RRIRCRPPRLPRPRPRPVEPPRP, the “shrunken log2 fold change” value is -0.0281.
Take RRIRNRPPRLPRPRPRPRVFPRP: the “shrunken log2 fold change” value was -0.036.
For RRIRYRPPRLPRPRPRPCCFPRP, the “shrunken log2 fold change” value was -0.709.
Under RRIRKRPPRLPRPRPRPVRWPRP stands 0.809.
As to RRIRDRPPRLPRPRPRPPQWPRP, the “shrunken log2 fold change” value was determined as 0.568.
Under RRIRTRPPRLPRPRPRPTMCPRP stands -0.416; under RRIRVRPPRLPRPRPRPIGSPRP, -0.0343.
For RRIRARPPRLPRPRPRPTSWPRP the value was 0.756; for RRIRRRPPRLPRPRPRPYADPRP, -0.0932; for RRIRYRPPRLPRPRPRPCSLPRP, 0.0201.
In the case of RRIRMRPPRLPRPRPRPNFYPRP, the “shrunken log2 fold change” value is -0.00797.
For RRIRRRPPRLPRPRPRPAACPRP the value was 0.0555.
With RRIRVRPPRLPRPRPRPFIKPRP, the “shrunken log2 fold change” value was -0.865.
Regarding RRIRKRPPRLPRPRPRPDWPPRP, the “shrunken log2 fold change” value turned out to be 0.168.
In the case of RRIRSRPPRLPRPRPRPLLAPRP, the “shrunken log2 fold change” value was 0.602.
RRIRMRPPRLPRPRPRPLIMPRP: the “shrunken log2 fold change” value is -0.0525.
Regarding RRIRPRPPRLPRPRPRPFQTPRP, the “shrunken log2 fold change” value is -0.242.
On to RRIRQRPPRLPRPRPRPPKIPRP, for which the “shrunken log2 fold change” value worked out at 0.156.
Take RRIRGRPPRLPRPRPRPCCHPRP: the “shrunken log2 fold change” value is 0.345.
Regarding RRIRMRPPRLPRPRPRPVTVPRP, the “shrunken log2 fold change” value was 0.0436.
On to RRIRNRPPRLPRPRPRPLVIPRP, for which the “shrunken log2 fold change” value was -0.432.
In the case of RRIRTRPPRLPRPRPRPAEYPRP, the “shrunken log2 fold change” value is -0.162.
Regarding RRIRARPPRLPRPRPRPVQKPRP, the “shrunken log2 fold change” value came to 0.198.
With RRIRFRPPRLPRPRPRPQPGPRP, the “shrunken log2 fold change” value is 0.152.
In the case of RRIRDRPPRLPRPRPRPLGNPRP, the “shrunken log2 fold change” value was -0.0332.
For RRIRHRPPRLPRPRPRPFESPRP the value was -0.00822; for RRIRSRPPRLPRPRPRPWTSPRP, 0.0101.
As for RRIRIRPPRLPRPRPRPWPVPRP, the “shrunken log2 fold change” value is -0.0355.
Regarding RRIRTRPPRLPRPRPRPTARPRP, the “shrunken log2 fold change” value stood at 0.0618.
On to RRIRPRPPRLPRPRPRPNKIPRP, for which the “shrunken log2 fold change” value is -0.203.

The values are drawn from the supplement of paper PMC9112550, “Optimization of the antimicrobial peptide Bac7 by deep mutational scanning” (BMC Biology, 2022).
